How the values were obtained:
[1] = target: T1, Human IL13Rα1-Fc (hIL13Rα1-Fc, RnD Systems #146-IR) (human, UniProt P78552 27-342); test: ELISA, coated hIL13Ra1-Fc, anti-FLAG-HRP
T1 construct: Bought; Fc part of the bought chimera not given
T1 sequence (looked up): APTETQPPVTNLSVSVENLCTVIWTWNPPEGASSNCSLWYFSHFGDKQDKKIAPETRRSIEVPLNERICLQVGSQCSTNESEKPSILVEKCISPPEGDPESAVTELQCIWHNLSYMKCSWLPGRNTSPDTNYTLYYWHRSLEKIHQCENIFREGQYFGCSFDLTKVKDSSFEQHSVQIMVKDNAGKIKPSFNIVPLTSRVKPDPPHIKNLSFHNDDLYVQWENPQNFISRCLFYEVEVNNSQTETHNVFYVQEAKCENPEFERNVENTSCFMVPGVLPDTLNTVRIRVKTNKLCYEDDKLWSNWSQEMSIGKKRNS
Procedure: Coating proteins hIL13Rα2-avi (Example A1), hIL13Rα2-Fc (RnD Systems #7147-IR), mIL13Rα2-Fc (RnD Systems #539-IR) and hIL13Rα1-Fc (RnD Systems #146-IR) were diluted to 1 μg/ml in PBS and directly coated into a 384-well ELISA plate. Two negative control proteins, streptavidin and a non-relevant protein, were also coated. Following incubation of plates with coating-proteins overnight at 4° C., plates were washed twice with MilliQ water and blocked for 2 h in blocking buffer (PBS supplemented with 0.5% BSA+0.05% TWEEN 20®). Triple-FLAG-tagged W-ME107 scFv clones present in bacterial supernatant were diluted 1:10 in blocking buffer and allowed to bind. Detection of binding was enabled through an HRP-conjugated anti-FLAG M2 antibody (Sigma-Aldrich #A8592) followed by incubation with 1-step Ultra TMB ELISA substrate (ThermoFisher Scientific #34029). The colorimetric-signal development was stopped by addition of 1 M sulfuric acid and plates were analyzed at […].

[2] = target: T2, Human IL13Rα2 Fc chimera (hIL13Rα2-Fc, RnD Systems #7147-IR) (human, UniProt Q14627 22-342); test: SPR single cycle kinetics, scFv captured
T2 construct: Bought; produced in CHO cells; homodimer through Fc fusion; also called hILRα2-Fc; Human ILRα2-Fc; not shown: Fc part (and any linker) of the bought chimera
T2 sequence: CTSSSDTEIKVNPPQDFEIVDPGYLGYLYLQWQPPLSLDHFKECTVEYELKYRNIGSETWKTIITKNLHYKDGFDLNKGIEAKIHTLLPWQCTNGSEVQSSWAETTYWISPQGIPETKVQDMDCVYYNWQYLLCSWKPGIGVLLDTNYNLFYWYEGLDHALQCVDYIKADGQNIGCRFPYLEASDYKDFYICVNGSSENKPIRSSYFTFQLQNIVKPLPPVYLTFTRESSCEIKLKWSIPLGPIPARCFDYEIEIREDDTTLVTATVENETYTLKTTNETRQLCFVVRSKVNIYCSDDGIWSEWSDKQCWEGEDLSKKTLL
Source text: (§1) An anti-FLAG M2 antibody (Sigma-Aldrich #F1804), functioning as a capture ligand was immobilized onto all four surfaces of a CM5-S amine sensor chip on a BIACORE® T200 instrument (GE Healthcare) according to manufacturer's recommendations.

[3] = target: T3, Biotinylated human IL13Rα2 (hIL13Rα2-avi) (human, UniProt Q14627 29-331, biotinylated in vivo on the Avi-tag by co-expressed BirA); test: SPR single cycle kinetics, scFv captured
T3 construct: Produced in Sf9 cells; native signal peptide (aa 1-28) exchanged for the gp67 signal peptide; 42.2 kDa; also called human IL13Rα2-avi; Human ILRα2-avi
T3 sequence: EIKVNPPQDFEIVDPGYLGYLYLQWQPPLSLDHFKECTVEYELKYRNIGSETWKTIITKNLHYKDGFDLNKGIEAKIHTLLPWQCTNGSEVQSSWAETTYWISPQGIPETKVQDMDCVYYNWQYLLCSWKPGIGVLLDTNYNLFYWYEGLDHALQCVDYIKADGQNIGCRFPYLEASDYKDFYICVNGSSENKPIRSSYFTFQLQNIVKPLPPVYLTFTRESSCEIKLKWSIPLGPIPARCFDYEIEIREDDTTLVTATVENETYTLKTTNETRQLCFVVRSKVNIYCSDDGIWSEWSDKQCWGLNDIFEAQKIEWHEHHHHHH
Source text: as §1

[4] = target: T4, Mouse IL13Rα2 Fc chimera (mIL13Rα2-Fc, RnD Systems #539-IR) (mouse, UniProt O88786 22-334); test: SPR single cycle kinetics, scFv captured
T4 construct: range 22-334; Bought; produced in NS0 cells; homodimer through Fc fusion; also called mILRα2-Fc; Mouse ILRα2-Fc; Fc part of the bought chimera not given
T4 sequence (looked up): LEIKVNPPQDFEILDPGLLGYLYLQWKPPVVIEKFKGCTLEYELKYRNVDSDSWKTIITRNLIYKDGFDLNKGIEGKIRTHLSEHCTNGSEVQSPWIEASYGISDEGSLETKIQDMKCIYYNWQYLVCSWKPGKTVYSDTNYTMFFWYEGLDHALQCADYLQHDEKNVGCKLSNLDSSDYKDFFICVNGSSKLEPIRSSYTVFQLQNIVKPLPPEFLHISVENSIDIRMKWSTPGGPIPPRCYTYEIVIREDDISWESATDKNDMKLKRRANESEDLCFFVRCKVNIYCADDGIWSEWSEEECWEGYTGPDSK
Source text: as §1

streptavidin [5] = target: T5, streptavidin (UniProt P22629 37-163, limits assumed); test: SPR: scFv captured on anti-FLAG M2, streptavidin injected
T5 construct: Negative control antigen; cognate antigen of G-strep-1 scFv; also called negative control protein streptavidin
Procedure: An anti-FLAG M2 antibody (Sigma-Aldrich #F1804), functioning as a capture ligand, was immobilized onto all four surfaces of a CM5-S amine sensor chip through ECD/NHS chemistry on a BIACORE® T200 instrument (GE Healthcare) according to manufacturer's recommendations.
The surfaces were regenerated with 10 mM glycin-HCl pH 2.1. All experiments were performed at 25° C. in HBS supplemented with 0.05% TWEEN 20®, pH 7.5.

[6] = target: T3, Biotinylated human IL13Rα2 …; test: ELISA on coated human IL13Ra2, scFv in bacterial supernatant, anti-FLAG-HRP
Procedure: (§2) Human IL13Rα2-avi (see Example A1), and negative control protein streptavidin were coated into a 384-ELISA well plate at 1 μg/ml in PBS at 4° C. overnight.
(§3) Plates were washed twice with MilliQ water and blocked for 2 h in blocking buffer (phosphate-buffered saline (PBS) supplemented with 0.5% bovine serum albumin (BSA)+0.05% TWEEN 20®). Triple-FLAG-tagged scFv 1E10B9 and mAb47, present in bacterial supernatant, were diluted 1:2, 1:20 and 1:200 in blocking buffer and allowed to bind. An assay control scFv (G-strep-1), specific for streptavidin, was also included. Detection of binding was enabled through an HRP-conjugated anti-FLAG M2 antibody (Sigma-Aldrich #A8592) followed by incubation with 1-step Ultra TMB ELISA substrate (ThermoFisher Scientific #34029). The colorimetric signal development was stopped by adding 1 M sulfuric acid and plates were read at 450 nm. All samples were assayed in duplicates.

streptavidin [7] = target: T5, streptavidin; test: ELISA on coated streptavidin, scFv in bacterial supernatant, anti-FLAG-HRP
Procedure: as §2, §3

T5 sequence (P22629 37-163 limits assumed): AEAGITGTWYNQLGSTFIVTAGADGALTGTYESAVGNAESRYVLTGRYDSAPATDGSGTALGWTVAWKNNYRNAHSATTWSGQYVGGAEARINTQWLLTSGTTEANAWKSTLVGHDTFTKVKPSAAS

B1: W-ME107-75 scFv (scFv, V domains shown)
VH: EVQLLESGGGLVQPGGSLRLSCAASGFTFYSYGMSWVRQAPGKGLEWVSYISGGGSYTYYADSVKGRFTISRDNSKNTLYLQMNSLRAEDTAVYYCARGSYSHYGAHYLDYWGQGTLVTVSS
VL: DIQMTQSPSSLSASVGDRVTITCRASQSISSYLNWYQQKPGKAPKLLIYAASSLQSGVPSRFSGSGSGTDFTLTISSLQPEDFATYYCQQALSSLPTFGQGTKLEIK
notes: Human scFv from SciLifeLib phage libraries
Does B1 bind [1]?
Result: no binding (tested: supernatant diluted 1:10)

What about the Kd [2] of the same binder?
The Kd was 5.4 nM.

What about the koff [2] of the same binder?
Its koff is 0.00026 s⁻¹.

And the kon [2]?
The kon was 48000 M⁻¹ s⁻¹.

What about the Kd [3] of the same binder?
The Kd was 36 nM.

And the koff [3]?
Its koff is 0.0079 s⁻¹.

And the kon [3]?
The kon was 220000 M⁻¹ s⁻¹.

And the Kd [4]?
The Kd was 80 nM.

And the koff [4]?
The koff was 0.0036 s⁻¹.

What about the kon [4] of the same binder?
The kon was 45000 M⁻¹ s⁻¹.

Does B1 bind (streptavidin [5])?
Result: no binding (tested: 200 nM)

B2: 1E10B9 scFv (scFv)
scFv: QIQLVQSGPELKKPGETVKIYCKASGYSFRDYSVHWVKQAPGKGLKWMGWINTETGEPTYVDEFKGRFAFFLEASANTVYLQISNLKNEDTATYFCDYRFTYWGQGTLVTVSAGGGGSGGGGSGGGGSEIVMTQTPLILSVTIGQPASISCKSSQSVLYSNGKTYLNWLLQRPGQSPKRLIYLVSKLDSGVPDRFTGSGSGTDFTLKISRVEAEDLGVYYCVQGSHFPYTFGGGTKLEIKAAADYKDHDGDYKDHDIDYKDDDDKAAAHHHHHH
notes: also called X-ME107-B9
Which results are given for B2?
binding result [6]: no binding (tested: supernatant diluted 1:2); binding result (streptavidin [7]): no binding (tested: supernatant diluted 1:2)

B3: W-ME107-117 scFv (scFv, V domains shown)
VH: EVQLLESGGGLVQPGGSLRLSCAASGFTFSGSYMSWVRQAPGKGLEWVSSIYGSGGYTYYADSVKGRFTISRDNSKNTLYLQMNSLRAEDTAVYYCARYSPFYMDYWGQGTLVTVSS
VL: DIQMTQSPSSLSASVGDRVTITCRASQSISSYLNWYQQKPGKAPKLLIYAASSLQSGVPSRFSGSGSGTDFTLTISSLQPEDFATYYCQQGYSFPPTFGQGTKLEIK
Which Kd [2] does the source give for B3 here?
Its Kd is 7.8 nM.

And the koff [2]?
Its koff is 0.00035 s⁻¹.

What about the kon [2] of the same binder?
The kon was 45000 M⁻¹ s⁻¹.

What about the Kd [3] of the same binder?
The Kd was 22 nM.

And the koff [3]?
Its koff is 0.0033 s⁻¹.

What about the kon [3] of the same binder?
The kon was 150000 M⁻¹ s⁻¹.

B4: W-ME107-27 scFv (scFv, V domains shown)
VH: EVQLLESGGGLVQPGGSLRLSCAASGFTFYGSYMGWVRQAPGKGLEWVSYISGYGGYTYYADSVKGRFTISRDNSKNTLYLQMNSLRAEDTAVYYCARTPYSAYIDYWGQGTLVTVSS
VL: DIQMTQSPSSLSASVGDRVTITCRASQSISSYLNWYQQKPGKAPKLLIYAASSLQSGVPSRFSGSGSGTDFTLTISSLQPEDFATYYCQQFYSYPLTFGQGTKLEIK
notes: as for B1
Does B4 bind [1]?
Result: no binding (tested: supernatant diluted 1:10)

And the Kd [3]?
The Kd was 3.1 nM.

What about the koff [3] of the same binder?
The koff was 0.00022 s⁻¹.

And the kon [3]?
The kon was 69000 M⁻¹ s⁻¹.

And the Kd [4]?
Its Kd is 2.4 nM.

And the koff [4]?
The koff was 0.00019 s⁻¹.

What about the kon [4] of the same binder?
Its kon is 80000 M⁻¹ s⁻¹.

Does B4 bind (streptavidin [5])?
Result: no binding (tested: 200 nM)

B5: W-ME107-10 scFv (scFv, V domains shown)
VH: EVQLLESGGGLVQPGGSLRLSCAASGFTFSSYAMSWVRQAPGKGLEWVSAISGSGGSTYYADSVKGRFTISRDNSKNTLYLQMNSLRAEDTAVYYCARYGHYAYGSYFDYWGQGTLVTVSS
VL: DIQMTQSPSSLSASVGDRVTITCRASQSISSYLNWYQQKPGKAPKLLIYAASSLQSGVPSRFSGSGSGTDFTLTISSLQPEDFATYYCQQDYYLFTFGQGTKLEIK
notes: as for B1
Does B5 bind [1]?
Result: no binding (tested: supernatant diluted 1:10)

And the Kd [3]?
Its Kd is 3.4 nM.

What about the koff [3] of the same binder?
Its koff is 0.00017 s⁻¹.

What about the kon [3] of the same binder?
Its kon is 51000 M⁻¹ s⁻¹.

What about the Kd [4] of the same binder?
Its Kd is 45 nM.

And the koff [4]?
Its koff is 0.0018 s⁻¹.

And the kon [4]?
Its kon is 40000 M⁻¹ s⁻¹.

Does B5 bind (streptavidin [5])?
Result: no binding (tested: 200 nM)

— patent publication US20230183364A1 (ELICERA THERAPEUTICS, published 2023)
